The target in assay [1] is T1, human PD-L1, full length, expressed on cells (human, UniProt Q9NZQ7 19-290).
T1 construct: also called HEK293/PD-L1 cells; HEK293/OS8/PD-L1 cells
Nature of the assay: FACS competition with biotin-CD80/Fc on HEK293/PD-L1 cells.

Assay [2] concerns the target T1, human PD-L1, full length, expressed on …. Nature of the assay: cell-based or functional assay.
The target is the same in assay [3]. Nature of the assay: FACS competition with biotin-PD-1/Fc on HEK293/PD-L1 cells.
Assay [4] has as its target T2, human PD-L1-ECD/His (human, UniProt Q9NZQ7 19-238).
T2 construct: Expressed in 293-F cells; also called PD-L1/His; human PD-L1/His
Nature of the assay: SPR (BIAcore T-200), human PD-L1/His on CM5 chip, Fab injected. The protocol: (§1) For affinity determinations of anti-PD-L1 Fabs, SPR assays were performed using BIAcore™ T-200 (GE Life Sciences). Briefly, human PD-L1/His was coupled to an activated CM5 biosensor chip (Cat. No. BR100530, GE Life Sciences) to achieve approximately 100-200 response units (RU), followed by blocking un-reacted groups with 1M ethanolamine. A serial dilutions of 0.12 nM to 90 nM Fab samples were injected, mixed into the SPR running buffer (10 mM HEPES, 150 mM NaCl, 0.05% Tween20, pH7.4) at 30 μL/minute, and binding responses on human PD-L1/His were calculated by substracting of RU from a blank flow-cell. Association rates (kₒₙ) and dissociation rates (koff) were calculated using the one-to-one Langmuir binding model (BIA Evaluation Software, GE Life Sciences). The equilibrium dissociation constant (Kd) was calculated as the ratio koff/kₒₙ.
(§2) For affinity determinations of anti-PD-L1 Fabs, SPR assays were conducted using BIAcore™ T-200 instrument (GE Life Sciences, Shanghai, China) as described earlier. Association rates (kₒₙ) and dissociation rates (koff) were calculated using the one-to-one Langmuir binding model (BIA Evaluation Software, GE Life Sciences). The equilibrium dissociation constant (Kd) was calculated as the ratio koff/kₒₙ.

Assay [5] addresses T3, cynomolgus monkey PD-L1/His (cynomolgus monkey (Macaca fascicularis), UniProt G7PSE7 19-238).
T3 construct: extracellular domain; Said to be expressed and purified in a similar way to the human PD-L1/His (PD-L1-ECD/His); not shown: His tag
Nature of the assay: SPR (BIAcore T-200), monkey PD-L1, Fab injected.

The target in assay [6] is T1, human PD-L1, full length, expressed on …. Nature of the assay: FACS competition with biotin-PD-1/Fc on HEK293/PD-L1 cells. This is another data set of the same source.
The target is the same in assay [7]. The assay can be described thus: FACS competition with biotin-CD80/Fc on HEK293/PD-L1 cells. The source holds these as a separate data set.
Assay [8] shares this target. The assay can be described thus: cell-based or functional assay. The source holds these as a separate data set.
In assay [9] the target is T2, human PD-L1-ECD/His. Nature of the assay: SPR (BIAcore T-200), human PD-L1, Fab injected. The protocol:
as §1, §2

Assay [10] deals with T1, human PD-L1, full length, expressed on …. Nature of the assay: cell-based or functional assay. This is another data set of the same source.
Assay [11] has the same target. The assay can be described thus: FACS competition with biotin-CD80/Fc on HEK293/PD-L1 cells. The source holds these as a separate data set.
Assay [12] deals with T2, human PD-L1-ECD/His. Nature of the assay: SPR (BIAcore T-200), human PD-L1/His on CM5 chip, Fab injected. The protocol:
as §1
This is another data set of the same source. In general terms: In SPR one partner is held on a chip, and binding of the other changes the refractive index at the surface.

For assay [13], the target named is T1, human PD-L1, full length, expressed on …. Nature of the assay: FACS competition with biotin-PD-1/Fc on HEK293/PD-L1 cells. The source says: Using this method, we evaluated functional strength of anti-PD-L1 mAbs.
This is another data set of the same source.

Broadly, the IC50 is the point on the concentration scale where inhibition reaches its midpoint. As usually defined, the Kd is the equilibrium constant for the complex coming apart. Usually koff stands for the rate constant with which the complex falls apart. A word on the kon: it is the second-order rate constant of association.

Where two headings read alike, the source gives them in different places.

T1 sequence (Q9NZQ7 19-290 limits assumed): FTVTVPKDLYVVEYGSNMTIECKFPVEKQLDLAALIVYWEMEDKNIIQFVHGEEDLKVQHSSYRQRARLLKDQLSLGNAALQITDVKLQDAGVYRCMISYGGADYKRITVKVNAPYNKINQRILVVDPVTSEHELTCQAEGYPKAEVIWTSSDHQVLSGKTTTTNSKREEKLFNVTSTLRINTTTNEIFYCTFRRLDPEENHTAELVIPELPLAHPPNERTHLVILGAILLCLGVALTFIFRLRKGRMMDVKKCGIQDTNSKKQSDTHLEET
T2 sequence (Q9NZQ7 19-238): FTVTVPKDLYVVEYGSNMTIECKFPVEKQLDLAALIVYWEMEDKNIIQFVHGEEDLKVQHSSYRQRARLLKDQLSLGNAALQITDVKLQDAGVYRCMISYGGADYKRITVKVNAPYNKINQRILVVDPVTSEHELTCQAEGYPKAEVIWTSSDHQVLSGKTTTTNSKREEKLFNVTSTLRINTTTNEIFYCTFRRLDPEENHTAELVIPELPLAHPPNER
T3 sequence (G7PSE7 entry or part of it): as the sequence (Q9NZQ7 19-238) above, with A33T, A34S, S62N, R68Q, Q82R, F173L, T185A, T192I, H215L counted along it

B1: hu333-3C2 Fab (Fab, V domains shown)
VH: EVQLVESGGGLVQPGGSLRLSCAVSGFSLTSYGVHWVRQAPGKGLEWVAVIWAGGSTNYADSVKGRFTISKDNSKNTVYLQMNSLRAEDTAVYYCAKPYGNSAMDYWGQGTLVTVSS
VL: DIQMTQSPSSLSASVGDRVTITCKASQDVGIVVAWYQQKPGKAPKLLIYWASIRHTGVPSRFSGSGSGTEFTLTISSLQPDDFATYYCQQYSNYPLYTFGQGTKVEIK
notes: Human Fab format; constant parts not restated
In assay [1], B1 showed an IC50 of 0.073 µg/mL and a Max inhibition of 99%. In assay [2], the “IL-2 release in HuT78/P3Z: IC50” value turned out to be 0.013 µg/mL, the “IL-2 release in HuT78/P3Z: Max inhibition” value was 100%, the “IL-2 release in HuT78/PD-1: EC50” value was 0.046 µg/mL and the “IL-2 release in HuT78/PD-1: Top line” value was found to be 3120 pg/mL. In addition, in [3], the IC50 worked out at 0.065 µg/mL and the Max inhibition was 100%. In the assay with human PD-L1-ECD/His [4], this molecule came in with a Kd of 8.09 pM, a koff of 1.15e-05 s⁻¹ and a kon of 1.42e+06 M⁻¹ s⁻¹.

B2: hu333-4B2 Fab (Fab, V domains shown)
VH: EVQLVESGGGLVQPGGSLRLSCAVSGFSLTSYGVHWVRQAPGKGLEWVAVIWAGGSTNYADSVKGRFTISKDTSKNTVYLQMNSLRAEDTAVYYCAKPYGTSAMDYWGQGTLVTVSS
VL: DIQMTQSPSSLSASVGDRVTITCKASQDVGIVVAWYQQKPGKAPKLLIYWASIRHTGVPSRFSGSGSGTEFTLTISSLQPDDFATYYCQQYSNYPLYTFGQGTKVEIK
notes: Human IgG1 Fab format: Vh fused to human IgG1-CH1 with C-terminal His6 tag, Vk fused to the constant region of kappa chain
In [5], B2 had a Kd of 2.5 pM, an off-rate constant (koff) of 8e-06 s⁻¹ and a kon of 3.2e+06 M⁻¹ s⁻¹. In assay [6], this molecule registered an IC50 of 0.053 µg/mL. Also, in assay [7], the IC50 was found to be 0.062 µg/mL. Further, in assay [8], the “IL-2 release in HuT78/P3Z: IC50” value was 0.016 µg/mL and the “IL-2 release in HuT78/PD-1: EC50” value came to 0.058 µg/mL. In the assay with human PD-L1-ECD/His [9], this molecule came in with a Kd of 3.5 pM, a koff of 1.32e-05 s⁻¹ and a kon of 3.78e+06 M⁻¹ s⁻¹. For the same molecule, in the assay with human PD-L1-ECD/His [4], the Kd is 3.5 pM, the koff came out at 1.32e-05 s⁻¹ and the kon worked out at 3.78e+06 M⁻¹ s⁻¹.

B3: hu333-1A Fab (Fab, V domains shown)
VH: EVQLVESGGGLVQPGGSLRLSCAVSGFSLTSYGVHWVRQAPGKGLEWVAVIWAGGSTNYNSALMSRLTISKDNAKNSVYLQMNSLRAEDTAVYYCAKPYGNSAMDYWGQGTLVTVSS
VL: DIQMTQSPSTLSASVGDRVTITCKASQDVGIVVAWYQQKPGKAPKLLIYWASIRHTGVPSRFSGSGSGTEFTLTISSLQPDDFATYYCQQYSNYPLYTFGQGTKLEIK
notes: Human Fab format: Vh joined to human IgG2 CH1 with C232S and C233S (Kabat numbering) and a C-terminal 8xHis tag; Vk joined to the constant region of human kappa chain
Take B3: in [10], the “IL-2 release in HuT78/P3Z: IC50” value stood at 0.012 µg/mL and the “IL-2 release in HuT78/PD-1: EC50” value is 0.066 µg/mL. In addition, the IC50 in assay [11] stood at 0.049 µg/mL. In the assay with human PD-L1-ECD/His [12], this molecule displayed a Kd of 9.88 pM, a koff of 1.59e-05 s⁻¹ and a kon of 1.61e+06 M⁻¹ s⁻¹. This molecule displayed an IC50 in assay [13] of 0.057 µg/mL.

B4: hu333-3A2 Fab (Fab, V domains shown)
VH: EVQLVESGGGLVQPGGSLRLSCAVSGFSLTSYGVHWVRQAPGKGLEWVAVIWAGGSTNYVDSVKGRLTISKDNAKNTVYLQMNSLRAEDTAVYYCAKPYGNSAMDYWGQGTLVTVSS
VL: DIQMTQSPSSLSASVGDRVTITCKASQDVGIVVAWYQQKPGKAPKLLIYWASIRHTGVPSRFSGSGSGTEFTLTISSLQPDDFATYYCQQYSNYPLYTFGQGTKVEIK
notes: as for B1
In assay [1], B4 came in with a 50% inhibitory concentration (IC50) of 0.044 µg/mL and a Max inhibition of 99%. In assay [2], the “IL-2 release in HuT78/P3Z: IC50” value is 0.014 µg/mL, the “IL-2 release in HuT78/P3Z: Max inhibition” value is 95%, the “IL-2 release in HuT78/PD-1: EC50” value was 0.057 µg/mL and the “IL-2 release in HuT78/PD-1: Top line” value worked out at 2550 pg/mL. In [3], this molecule yielded an IC50 of 0.068 µg/mL and a Max inhibition of 100%. In the assay with human PD-L1-ECD/His [4], the affinity, expressed as Kd, was 0.17 pM; the koff stood at 2.2e-07 s⁻¹; the kon is 1.28e+06 M⁻¹ s⁻¹.

B5: hu333-3H2 Fab (Fab, V domains shown)
VH: EVQLVESGGGLVQPGGSLRLSCAVSGFSLTSYGVHWVRQAPGKGLEWVAVIWAGGSTNYADSVKGRFTISKDTSKNTVYLQMNSLRAEDTAVYYCAKPYGNSAMDYWGQGTLVTVSS
VL: DIQMTQSPSSLSASVGDRVTITCKASQDVGIVVAWYQQKPGKAPKLLIYWASIRHTGVPSRFSGSGSGTEFTLTISSLQPDDFATYYCQQYSNYPLYTFGQGTKVEIK
notes: as for B1
With B5, in assay [1], the IC50 worked out at 0.064 µg/mL and the Max inhibition came out at 99%. Besides, in assay [2], the “IL-2 release in HuT78/P3Z: IC50” value was determined as 0.014 µg/mL, the “IL-2 release in HuT78/P3Z: Max inhibition” value came to 100%, the “IL-2 release in HuT78/PD-1: EC50” value amounted to 0.057 µg/mL and the “IL-2 release in HuT78/PD-1: Top line” value was 3020 pg/mL. In assay [3], this molecule showed an IC50 of 0.071 µg/mL and a Max inhibition of 100%. In the assay with human PD-L1-ECD/His [4], this molecule returned a Kd of 34.9 pM, a dissociation rate constant (koff) of 4.61e-05 s⁻¹ and a kon of 1.32e+06 M⁻¹ s⁻¹.

B6: hu333-4A2 Fab (Fab, V domains shown)
VH: EVQLVESGGGLVQPGGSLRLSCAVSGFSLTSYGVHWVRQAPGKGLEWVAVIWAGGSTNYVDSVKGRFTISKDNAKNTVYLQMNSLRAEDTAVYYCAKPYGTSAMDYWGQGTLVTVSS
VL: DIQMTQSPSSLSASVGDRVTITCKASQDVGIVVAWYQQKPGKAPKLLIYWASIRHTGVPSRFSGSGSGTEFTLTISSLQPDDFATYYCQQYSNYPLYTFGQGTKVEIK
notes: as for B2
In [5], B6 showed an equilibrium dissociation constant (Kd) of 2.91 pM, a koff of 9.3e-06 s⁻¹ and a kon of 3.19e+06 M⁻¹ s⁻¹. The molecule further registered an IC50 in assay [6] of 0.05 µg/mL. In [7], this molecule displayed an IC50 of 0.045 µg/mL. In [8], the “IL-2 release in HuT78/P3Z: IC50” value was 0.005 µg/mL and the “IL-2 release in HuT78/PD-1: EC50” value turned out to be 0.05 µg/mL. In the assay with human PD-L1-ECD/His [9], the equilibrium dissociation constant (Kd) turned out to be 2.65 pM, the koff was 1.03e-05 s⁻¹ and the kon was found to be 3.88e+06 M⁻¹ s⁻¹. For the same molecule, in the assay with human PD-L1-ECD/His [4], the Kd turned out to be 2.65 pM, the koff came out at 1.03e-05 s⁻¹ and the on-rate (kon) came out at 3.88e+06 M⁻¹ s⁻¹.

B7: hu333-2B Fab (Fab, V domains shown)
VH: EVQLVESGGGLVQPGGSLRLSCAVSGFSLTSYGVHWVRQAPGKGLEWVAVIWAGGSTNYVDSVKGRFTISKDNAKNSVYLQMNSLRAEDTAVYYCAKPYGNSAMDYWGQGTLVTVSS
VL: DIQMTQSPSTLSASVGDRVTITCKASQDVGIVVAWYQQKPGKAPKLLIYWASIRHTGVPSRFSGSGSGTEFTLTISSLQPDDFATYYCQQYSNYPLYTFGQGTKLEIK
notes: Human Fab format, His-tagged; constant parts not restated (as for hu333-1A)
As for B7, in [10], the “IL-2 release in HuT78/P3Z: IC50” value was 0.011 µg/mL and the “IL-2 release in HuT78/PD-1: EC50” value was found to be 0.054 µg/mL. The molecule further gave an IC50 in [11] of 0.055 µg/mL. In the assay with human PD-L1-ECD/His [12], the dissociation constant Kd came to 1.54 pM, the dissociation rate constant (koff) amounted to 2.09e-06 s⁻¹ and the on-rate (kon) is 1.36e+06 M⁻¹ s⁻¹. The same molecule displayed an IC50 in assay [13] of 0.062 µg/mL.

The values above are taken from US20180215825A1 (BEIGENE, published 2018).
